Measurements reported in patent publication US20220243213A1, “ANTI-CRISPR INHIBITORS” (THE REGENTS OF THE UNIVERSITY OF CALIFORNIA, published 2022).
Numbering of substitutions follows the chain as printed.

Tests used:
[1] = system: AcrIIA1 (phage A006) (Listeria phage A006); assay: MST; details: 34 nM stated in Example 5 (p151)
[2] = system: AcrIIA1 NTD (Listeria phage A006); assay: MST
[3] = target: Listeria monocytogenes Cas9 (LmoCas9) (Listeria monocytogenes); assay: cell-based or functional assay
[4] = target: T1, Aca1 (Pseudomonas aeruginosa phage JBD30); assay: EMSA; no shift up to 250 nM; details: tags: p15TV-L expression, Ni-NTA purified; chain copies: 2 (inferred; HTH proteins stated generally dimeric)
T1 chain: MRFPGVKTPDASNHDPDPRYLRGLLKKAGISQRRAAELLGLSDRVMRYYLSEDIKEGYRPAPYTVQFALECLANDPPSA
Protocol: (§1) Representative non-denaturing polyacrylamide gels stained with SYBR gold are shown. Purified Aca1 was added to the DNA at concentrations of 10 nM, 50 nM, 100 nM and 250 nM. […] FIG. 3F: The anti-CRISPR promoter region from phage JBD30 either wild-type (WT), or bearing IR1 and/or IR2 mutations was cloned upstream of a promoterless lacZ gene. β-galactosidase activity was measured in PA14 (−Aca1) or in a JBD30 lysogen (+Aca1). The mean β-galactosidase activity relative to the wild-type promoter is shown, with error bars representing standard error of the mean (n≥3). FIG. 3G: Ten-fold dilutions of lysates of anti-CRISPR phage JBD30 carrying the indicated inverted repeat mutations were applied to lawns of CRISPR-Cas intact PA14 or CRISPR deleted PA14 (PA14ΔCRISPR). Representative images from three biological replicates are shown.
Aca1 acts on the acr promoter. Aca1 proteins are bioinformatically predicted to contain a helix-turn-helix (HTH) DNA-binding motif (FIG. 8A). HTH-containing proteins are generally dimeric and bind to inverted repeat sequences. We identified two such sites with very similar sequences which we refer to as IR1 and IR2, flanking the −35 region of the acrIF1 promoter (FIG. 3B). […]

[5] = target: T2, Aca2 ZF40 (Pectobacterium phage ZF40, UniProt H9C180 H9C180:1-116); assay: cell_activity; lacZ reporter in E. coli; text listing of SEQ 6 differs from the Table 8 sequence for this accession; details: chain copies: 2
T2 sequence: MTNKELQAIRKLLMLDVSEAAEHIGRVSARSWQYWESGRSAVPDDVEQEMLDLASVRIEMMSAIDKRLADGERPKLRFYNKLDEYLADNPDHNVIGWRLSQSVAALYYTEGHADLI
Description: By aligning the intergenic regions found immediately upstream of anti-CRISPR genes associated with aca2, we detected a conserved inverted repeat sequence that could act as a binding site for Aca2 proteins (FIG. 11B). […] To investigate the functions of Aca2 and Aca3, the acrlaca regions from Pectobacterium phage ZF40 and from N. meningitidis strain 2842STDY5881035 were investigated as representatives of the Aca2 and Aca3 families, respectively. The putative promoter regions of the anti-CRISPR genes in these two operons (FIGS. 11B and 11D) were cloned upstream of a promoterless lacZ reporter gene carried on a plasmid. When assayed in E. coli, both regions mediated robust transcription of the reporter as detected by measuring β-galactosidase activity in cell extracts (FIG. 7).
β-galactosidase reporter assays. β-galactosidase reporter plasmids were transformed into DH5a and PA14. Overnight cultures of transformed cells were subcultured 1:100 and grown for ˜3 hours with shaking (OD₆₀₀=0.4-0.7). β-galactosidase activity was then quantified using a method derived from Zhang and Bremer, 1995. […] The reaction was stopped with the addition of 700 μL of 1 M Na₂CO₃, A420 and A550 were measured, and Miller Units were calculated.

[6] = target: T1, Aca1; assay: EMSA; two shifted bands; 10-250 nM Aca1; details: tags: p15TV-L expression, Ni-NTA purified; chain copies: 2 (inferred; HTH proteins stated generally dimeric)
Protocol: as §1, with “FIG. 3E: Electrophoretic mobility shift assays (EMSAs) were performed utilizing a fragment of dsDNA with the sequence shown, which encompasses the acr promoter region. The IR1 and IR2 mutants contained the triple and quadruple base substitutions indicated under the DNA sequence. Representative non-denaturing” for “Representative non-denaturing”
Aca1 acts on the acr promoter. Aca1 proteins are bioinformatically predicted to contain a helix-turn-helix (HTH) DNA-binding motif (FIG. 8A). HTH-containing proteins are generally dimeric and bind to inverted repeat sequences. […]

[7] = target: T3, Aca1 R44A (Pseudomonas aeruginosa phage JBD30, R44A); assay: EMSA; binding completely abolished; 10-500 nM; details: tags: p15TV-L expression, Ni-NTA purified; chain copies: 2 (inferred)
T3 chain: T1 chain with R44A
Protocol: FIG. 4A: Representative electrophoretic mobility shift assays with indicated Aca1 mutants using the 110 bp upstream region from phage JBD30 as a substrate. Purified protein was added at concentrations of 10 nM, 50 nM, 100 nM, 250 nM and 500 nM. […] Non-denaturing acrylamide gels stained with SYBR gold are shown. FIG. 4B: The anti-CRISPR promoter region from phage JBD30 was cloned upstream of a promoterless lacZ gene. β-galactosidase activity was measured in a wild-type JBD30 lysogen (WT Aca1), JBD30 Aca1 mutant lysogens as indicated, and wild-type PA14 with no prophage (−). The mean from three independent experiments relative to the wild-type Aca1 JBD30 lysogen is shown, with error bars representing the standard error of the mean. FIG. 4C: Lysates of phage JBD30 (WT or Aca1R44A mutant) were spotted in 10-fold serial dilutions on bacterial lawns of wild-type P. aeruginosa PA14, a CRISPR deletion version of PA14 (PA14ΔCRISPR), or on the deletion strain bearing a plasmid that expresses Aca1. These phages are targeted by the CRISPR-Cas system in the absence of anti-CRISPR activity. Representative images from three biological replicates are shown. […] FIG. 4E: The transcript levels of the acrIF1 and aca1 genes in phages bearing anti-CRISPR promoter operator mutants and aca mutants were determined by RT-qPCR. […]

[8] = target: T1, Aca1; assay: EMSA; 10 mM HEPES pH 7.5, 1 mM MgCl2, 20 mM KCl, 1 mM TCEP, 6% glycerol, on ice; second shifted band at higher concentrations; details: tags: p15TV-L expression, Ni-NTA purified; chain copies: 2 (inferred; HTH proteins stated generally dimeric)
Description: Aca1 acts on the acr promoter. Aca1 proteins are bioinformatically predicted to contain a helix-turn-helix (HTH) DNA-binding motif (FIG. 8A). HTH-containing proteins are generally dimeric and bind to inverted repeat sequences. We identified two such sites with very similar sequences which we refer to as IR1 and IR2, flanking the −35 region of the acrIF1 promoter (FIG. 3B). To determine whether Aca1 could bind to the anti-CRISPR promoter region, purified Aca1 was mixed with a 110 bp dsDNA fragment containing the acr promoter and an electrophoretic mobility shift assay (EMSA) was performed. […] At higher Aca1 concentrations, a second shifted band was observed, consistent with the presence of two Aca1 binding sites within this fragment.
Electrophoretic mobility shift assay. Varying concentrations of purified Aca1 or Aca1 mutants were mixed with 20 ng of target DNA (gel purified PCR product or annealed oligo) in binding buffer (10 mM HEPES pH 7.5, 1 mM MgCl₂, 20 mM KCl, 1 mM TCEP, 6% v/v glycerol) and incubated on ice for 20 minutes. The DNA-protein complexes were separated by gel electrophoresis at 100 V on a 6% native 0.5× TBE polyacrylamide gel. Gels were stained at room temperature with Sybr gold (Invitrogen) and visualized according to the supplier's instructions. Bands were quantified using Image Lab 6.0 software (BioRad). […]

[9] = target: T4, Aca1 (in cell) (Pseudomonas aeruginosa phage JBD30); assay: cell_activity; lacZ reporter in P. aeruginosa JBD30 lysogen
T4 chain: T1 chain

“phage A006 anti-CRISPR promoter palindrome” showed a Kd [1] of 26 nM and a Kd [2] of 28 nM.

“AcrIIA1 (full-length, from Listeria phage ΦA006)” showed a Nanoluciferase (NLuc) expression from the anti-CRISPR locus promoter, fold change in RLU, ΦA006acr::nluc lysogen [3] of 5 fold.

B1: IR1+IR2 mutant oligo (dsDNA)
DNA 1: ACAAGCGTCGTACTGTGCCTATTGCGAGCTAGTCCCAATGTGCCTAATCTAACG
DNA 2: CGTTAGATTAGGCACATTGGGACTAGCTCGCAATAGGCACAGTACGACGCTTGT
B1: no binding [4].

B2: ZF40 acrIF8 promoter region (dsDNA)
DNA 1: AGCCTCACCTCCGGCGTTGCCGTGGCGCTGTGTGATTTACAGGAAATAAAAAGGCCACGAATGCGGCCTTAGCGATTAAAAAATATGAAATGCCTTGCTTGTTCGCGATTGCGAACATATAATTTATTCATCGGTTCGAG
DNA 2: CTCGAACCGATGAATAAATTATATGTTCGCAATCGCGAACAAGCAAGGCATTTCATATTTTTTAATCGCTAAGGCCGCATTCGTGGCCTTTTTATTTCCTGTAAATCACACAGCGCCACGGCAACGCCGGAGGTGAGGCT
B2 was tested, and the activity [5] was 100 fold repression.

B3: acrIF1 promoter IR1-IR2 oligo WT (dsDNA)
DNA 1: ACAAGCGGCACACTGTGCCTATTGCGAATTAGGCACAATGTGCCTAATCTAACG
DNA 2: CGTTAGATTAGGCACATTGTGCCTAATTCGCAATAGGCACAGTGTGCCGCTTGT
B3: binds [6].

B4: JBD30 acrIF1 promoter 110 bp upstream region (dsDNA)
DNA 1: TGGCCACTTTCGGACAAGCGGCACACTGTGCCTATTGCGAATTAGGCACAATGTGCCTAATCTAACGTCATGCCAGCCACAACGGCGAGGCGCCAACAAGGATTCAAACC
DNA 2: GGTTTGAATCCTTGTTGGCGCCTCGCCGTTGTGGCTGGCATGACGTTAGATTAGGCACATTGTGCCTAATTCGCAATAGGCACAGTGTGCCGCTTGTCCGAAAGTGGCCA
For B4, the binding result [7] was “no binding”, the Kd [8] was about 50 nM and the activity [9] was 5 fold repression.
